The supplement of paper PMC5998384

Columns and labels:
HeLa Kyoto [1] = assay: thermal stability score vs G1/S (z-score of summed log2 fold changes over temperatures); higher = more thermally stable than in G1/S
HeLa Kyoto [2] = assay: solubility change mitosis vs G1/S (difference of NP-40 vs SDS log2 ratios) (log2 ratio difference); higher = more soluble in mitosis
HeLa Kyoto [3] = assay: solubility in G1/S (NP-40 vs SDS abundance) (log2 ratio); higher = more soluble; settings: cell cycle stage: G1/S
HeLa Kyoto [4] = assay: melting temperature (median over replicates), in situ; higher = more thermally stable
[5] = cell cycle stage: early G1 (4.5 h after nocodazole release)
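Wherever melting temperature (median over replicates), in situ is given: HeLa Kyoto cells synchronized by double thymidine or nocodazole block, proteins quantified by TMT10plex mass spectrometry, three independent biological replicates.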
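Wherever solubility change mitosis vs G1/S (difference of NP-40 vs SDS log2 ratios) is given: synchronized HeLa Kyoto cells (double thymidine block for G1/S, nocodazole release for mitosis), protein amounts in NP-40 versus SDS lysates quantified by mass spectrometry, three biological replicates.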
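Wherever solubility in G1/S (NP-40 vs SDS abundance) is given: HeLa Kyoto cells arrested at G1/S by double thymidine block, proteins quantified by TMT10plex mass spectrometry in mild NP-40 versus SDS extracts, three biological replicates.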
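Wherever thermal stability score vs G1/S (z-score of summed log2 fold changes over temperatures) is given: synchronized HeLa Kyoto cells, proteins quantified by TMT10plex mass spectrometry, three biological replicates, mitosis taken 0.5 h after nocodazole release, G1/S directly after double thymidine block.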

Sequence of ACP2 (chain, as listed by the source): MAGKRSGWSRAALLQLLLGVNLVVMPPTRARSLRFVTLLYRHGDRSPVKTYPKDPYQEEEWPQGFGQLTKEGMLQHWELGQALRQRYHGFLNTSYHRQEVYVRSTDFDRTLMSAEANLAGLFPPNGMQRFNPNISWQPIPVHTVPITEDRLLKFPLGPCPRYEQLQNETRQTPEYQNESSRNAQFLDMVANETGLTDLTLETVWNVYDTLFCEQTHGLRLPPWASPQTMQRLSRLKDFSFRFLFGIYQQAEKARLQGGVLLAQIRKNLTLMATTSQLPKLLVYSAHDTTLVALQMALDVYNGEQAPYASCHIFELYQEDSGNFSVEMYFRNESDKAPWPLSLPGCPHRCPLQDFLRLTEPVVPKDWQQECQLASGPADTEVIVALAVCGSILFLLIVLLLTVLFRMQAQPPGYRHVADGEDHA

Substance | thermal stability score (HeLa Kyoto [1]; [5]) | thermal stability score (HeLa Kyoto [1]; cell cycle stage: mitosis) | solubility change mitosis (log2) (HeLa Kyoto [2]) | solubility in G1/S (log2) (HeLa Kyoto [3]) | melting temperature (HeLa Kyoto [4]; cell cycle stage: G1/S) [°C] | melting temperature (HeLa Kyoto [4]; cell cycle stage: mitosis) [°C]
MSGELPPNINIKEPRWDQSTFIGRANHFFTVTDPRNILLTNEQLESARKIVHDYRQGIVPPGLTENELWRAKYIYDSAFHPDTGEKMILIGRMSAQVPMNMTITGCMMTFYRTTPAVLFWQWINQSFNAVVNYTNRSGDAPLTVNELGTAYVSATTGAVATALGLNALTKHVSPLIGRFVPFAAVAAANCINIPLMRQRELKVGIPVTDENGNRLGESANAAKQAITQVVVSRILMAAPGMAIPPFIMNTLEKKAFLKRFPWMSAPIQVGLVGFCLVFATPLCCALFPQKSSMSVTSLEAELQAKIQESHPELRRVYFNKGL [SFXN1] | -0.303 | -0.959 | -0.0506 | 0.371 | 54.4 | 54.8
MAGSEQQRPRRRDDGDSDAAAAAAAPLQDAELALAGINMLLNNGFRESDQLFKQYRNHSPLMSFGASFVSFLNAMMTFEEEKMQLACDDLKTTEKLCESEEAGVIETIKNKIKKNVDVRKSAPSMVDRLQRQIIIADCQVYLAVLSFVKQELSAYIKGGWILRKAWKIYNKCYLDINALQELYQKKLTEESLTSDAANDNHIVAEGVSEESLNRLKGAVSFGYGLFHLCISMVPPNLLKIINLLGFPGDRLQGLSSLMYASESKDMKAPLATLALLWYHTVVRPFFALDGSDNKAGLDEAKEILLKKEAAYPNSSLFMFFKGRIQRLECQINSALTSFHTALELAVDQREIQHVCLYEIGWCSMIELNFKDAFDSFERLKNESRWSQCYYAYLTAVCQGATGDVDGAQIVFKEVQKLFKRKNNQIEQFSVKKAERFRKQTPTKALCVLASIEVLYLWKALPNCSFPNLQRMSQACHEVDDSSVVGLKYLLLGAIHKCLGNSEDAVQYFQRAVKDELCRQNNLYVQPYACYELGCLLLDKPETVGRGRALLLQAKEDFSGYDFENRLHVRIHAALASLRELVPQ [TTC39C] | -1.01 | -2.55 | -0.00412 | -0.0737 | 53.6 | 52.6
MAAGAGTAGPASGPGVVRDPAASQPRKRPGREGGEGARRSDTMAGGGGSSDGSGRAAGRRASRSSGRARRGRHEPGLGGPAERGAGEARLEEAVNRWVLKFYFHEALRAFRGSRYGDFRQIRDIMQALLVRPLGKEHTVSRLLRVMQCLSRIEEGENLDCSFDMEAELTPLESAINVLEMIKTEFTLTEAVVESSRKLVKEAAVIICIKNKEFEKASKILKKHMSKDPTTQKLRNDLLNIIREKNLAHPVIQNFSYETFQQKMLRFLESHLDDAEPYLLTMAKKALKSESAASSTGKEDKQPAPGPVEKPPREPARQLRNPPTTIGMMTLKAAFKTLSGAQDSEAAFAKLDQKDLVLPTQALPASPALKNKRPRKDENESSAPADGEGGSELQPKNKRMTISRLVLEEDSQSTEPSAGLNSSQEAASAPPSKPTVLNQPLPGEKNPKVPKGKWNSSNGVEEKETWVEEDELFQVQAAPDEDSTTNITKKQKWTVEESEWVKAGVQKYGEGNWAAISKNYPFVNRTAVMIKDRWRTMKRLGMN [TERF2] | 1.08 | 1.27 | 0.0937 | 0.0628 | 48.9 | 50.3
MSLWGLVSKMPPEKVQRLYVDFPQHLRHLLGDWLESQPWEFLVGSDAFCCNLASALLSDTVQHLQASVGEQGEGSTILQHISTLESIYQRDPLKLVATFRQILQGEKKAVMEQFRHLPMPFHWKQEELKFKTGLRRLQHRVGEIHLLREALQKGAEAGQVSLHSLIETPANGTGPSEALAMLLQETTGELEAAKALVLKRIQIWKRQQQLAGNGAPFEESLAPLQERCESLVDIYSQLQQEVGAAGGELEPKTRASLTGRLDEVLRTLVTSCFLVEKQPPQVLKTQTKFQAGVRFLLGLRFLGAPAKPPLVRADMVTEKQARELSVPQGPGAGAESTGEIINNTVPLENSIPGNCCSALFKNLLLKKIKRCERKGTESVTEEKCAVLFSASFTLGPGKLPIQLQALSLPLVVIVHGNQDNNAKATILWDNAFSEMDRVPFVVAERVPWEKMCETLNLKFMAEVGTNRGLLPEHFLFLAQKIFNDNSLSMEAFQHRSVSWSQFNKEILLGRGFTFWQWFDGVLDLTKRCLRSYWSDRLIIGFISKQYVTSLLLNEPDGTFLLRFSDSEIGGITIAHVIRGQDGSPQIENIQPFSAKDLSIRSLGDRIRDLAQLKNLYPKKPKDEAFRSHYKPEQMGKDGRGYVPATIKMTVERDQPLPTPELQMPTMVPSYDLGMAPDSSMSMQLGPDMVPQVYPPHSHSIPPYQGLSPEESVNVLSAFQEPHLQMPPSLGQMSLPFDQPHPQGLLPCQPQEHAVSSPDPLLCSDVTMVEDSCLSQPVTAFPQGTWIGEDIFPPLLPPTEQDLTKLLLEGQGESGGGSLGAQPLLQPSHYGQSGISMSHMDLRANPSW [STAT6] | 0.798 | 2.24 | -0.111 | 0.0515 | 48.4 | 49.6
MSGDSSGRGPEGRGRGRDPHRDRTRSRSRSRSPLSPRSRRGSARERREAPERPSLEDTEPSDSGDEMMDPASLEAEADQGLCRQIRHQYRALINSVQQNREDILNAGDKLTEVLEEANTLFNEVSRAREAVLDAHFLVLASDLGKEKAKQLRSDLSSFDMLRYVETLLTHMGVNPLEAEELIRDEDSPDFEFIVYDSWKITGRTAENTFNKTHTFHFLLGSIYGECPVPKPRVDRPRKVPVIQEERAMPAQLRRMEESHQEATEKEVERILGLLQTYFREDPDTPMSFFDFVVDPHSFPRTVENIFHVSFIIRDGFARIRLDQDRLPVIEPVSINEENEGFEHNTQVRNQGIIALSYRDWEEIVKTFEISEPVITPSQRQQKPSA [NSMCE4A] | -2.46 | -1.49 | 0.00196 | 0.182 | 49.9 | 50.2
MATDTSQGELVHPKALPLIVGAQLIHADKLGEKVEDSTMPIRRTVNSTRETPPKSKLAEGEEEKPEPDISSEESVSTVEEQENETPPATSSEAEQPKGEPENEEKEENKSSEETKKDEKDQSKEKEKKVKKTIPSWATLSASQLARAQKQTPMASSPRPKMDAILTEAIKACFQKSGASVVAIRKYIIHKYPSLELERRGYLLKQALKRELNRGVIKQVKGKGASGSFVVVQKSRKTPQKSRNRKNRSSAVDPEPQVKLEDVLPLAFTRLCEPKEASYSLIRKYVSQYYPKLRVDIRPQLLKNALQRAVERGQLEQITGKGASGTFQLKKSGEKPLLGGSLMEYAILSAIAAMNEPKTCSTTALKKYVLENHPGTNSNYQMHLLKKTLQKCEKNGWMEQISGKGFSGTFQLCFPYYPSPGVLFPKKEPDDSRDEDEDEDESSEEDSEDEEPPPKRRLQKKTPAKSPGKAASVKQRGSKPAPKVSAAQRGKARPLPKKAPPKAKTPAKKTRPSSTVIKKPSGGSSKKPATSARKEVKLPGKGKSTMKKSFRVKK [HP1BP3] | 0.824 | 0.423 | 0.474 | -1.01 | 51.8 | 51.5
HEATR5B | -0.405 | -0.289 | -0.00901 | -0.275 | 50.8 | 52.4
MAKIAKTHEDIEAQIREIQGKKAALDEAQGVGLDSTGYYDQEIYGGSDSRFAGYVTSIAATELEDDDDDYSSSTSLLGQKKPGYHAPVALLNDIPQSTEQYDPFAEHRPPKIADREDEYKKHRRTMIISPERLDPFADGGKTPDPKMNARTYMDVMREQHLTKEEREIRQQLAEKAKAGELKVVNGAAASQPPSKRKRRWDQTADQTPGATPKKLSSWDQAETPGHTPSLRWDETPGRAKGSETPGATPGSKIWDPTPSHTPAGAATPGRGDTPGHATPGHGGATSSARKNRWDETPKTERDTPGHGSGWAETPRTDRGGDSIGETPTPGASKRKSRWDETPASQMGGSTPVLTPGKTPIGTPAMNMATPTPGHIMSMTPEQLQAWRWEREIDERNRPLSDEELDAMFPEGYKVLPPPAGYVPIRTPARKLTATPTPLGGMTGFHMQTEDRTMKSVNDQPSGNLPFLKPDDIQYFDKLLVDVDESTLSPEEQKERKIMKLLLKIKNGTPPMRKAALRQITDKAREFGAGPLFNQILPLLMSPTLEDQERHLLVKVIDRILYKLDDLVRPYVHKILVVIEPLLIDEDYYARVEGREIISNLAKAAGLATMISTMRPDIDNMDEYVRNTTARAFAVVASALGIPSLLPFLKAVCKSKKSWQARHTGIKIVQQIAILMGCAILPHLRSLVEIIEHGLVDEQQKVRTISALAIAALAEAATPYGIESFDSVLKPLWKGIRQHRGKGLAAFLKAIGYLIPLMDAEYANYYTREVMLILIREFQSPDEEMKKIVLKVVKQCCGTDGVEANYIKTEILPPFFKHFWQHRMALDRRNYRQLVDTTVELANKVGAAEIISRIVDDLKDEAEQYRKMVMETIEKIMGNLGAADIDHKLEEQLIDGILYAFQEQTTEDSVMLNGFGTVVNALGKRVKPYLPQICGTVLWRLNNKSAKVRQQAADLISRTAVVMKTCQEEKLMGHLGVVLYEYLGEEYPEVLGSILGALKAIVNVIGMHKMTPPIKDLLPRLTPILKNRHEKVQENCIDLVGRIADRGAEYVSAREWMRICFELLELLKAHKKAIRRATVNTFGYIAKAIGPHDVLATLLNNLKVQERQNRVCTTVAIAIVAETCSPFTVLPALMNEYRVPELNVQNGVLKSLSFLFEYIGEMGKDYIYAVTPLLEDALMDRDLVHRQTASAVVQHMSLGVYGFGCEDSLNHLLNYVWPNVFETSPHVIQAVMGALEGLRVAIGPCRMLQYCLQGLFHPARKVRDVYWKIYNSIYIGSQDALIAHYPRIYNDDKNTYIRYELDYIL [SF3B1] | -1.78 | -0.315 | 0.299 | -0.486 | 50.9 | 50.4
MPLSRWLRSVGVFLLPAPYWAPRERWLGSLRRPSLVHGYPVLAWHSARCWCQAWTEEPRALCSSLRMNGDQNSDVYAQEKQDFVQHFSQIVRVLTEDEMGHPEIGDAIARLKEVLEYNAIGGKYNRGLTVVVAFRELVEPRKQDADSLQRAWTVGWCVELLQAFFLVADDIMDSSLTRRGQICWYQKPGVGLDAINDANLLEACIYRLLKLYCREQPYYLNLIELFLQSSYQTEIGQTLDLLTAPQGNVDLVRFTEKRYKSIVKYKTAFYSFYLPIAAAMYMAGIDGEKEHANAKKILLEMGEFFQIQDDYLDLFGDPSVTGKIGTDIQDNKCSWLVVQCLQRATPEQYQILKENYGQKEAEKVARVKALYEELDLPAVFLQYEEDSYSHIMALIEQYAAPLPPAVFLGLARKIYKRRK [FDPS] | 2.88 | 3.37 | -0.0646 | 0.151 | 50.8 | 51
MAAPMTPAARPEDYEAALNAALADVPELARLLEIDPYLKPYAVDFQRRYKQFSQILKNIGENEGGIDKFSRGYESFGVHRCADGGLYCKEWAPGAEGVFLTGDFNGWNPFSYPYKKLDYGKWELYIPPKQNKSVLVPHGSKLKVVITSKSGEILYRISPWAKYVVREGDNVNYDWIHWDPEHSYEFKHSRPKKPRSLRIYESHVGISSHEGKVASYKHFTCNVLPRIKGLGYNCIQLMAIMEHAYYASFGYQITSFFAASSRYGTPEELQELVDTAHSMGIIVLLDVVHSHASKNSADGLNMFDGTDSCYFHSGPRGTHDLWDSRLFAYSSWEILRFLLSNIRWWLEEYRFDGFRFDGVTSMLYHHHGVGQGFSGDYSEYFGLQVDEDALTYLMLANHLVHTLCPDSITIAEDVSGMPALCSPISQGGGGFDYRLAMAIPDKWIQLLKEFKDEDWNMGDIVYTLTNRRYLEKCIAYAESHDQALVGDKSLAFWLMDAEMYTNMSVLTPFTPVIDRGIQLHKMIRLITHGLGGEGYLNFMGNEFGHPEWLDFPRKGNNESYHYARRQFHLTDDDLLRYKFLNNFDRDMNRLEERYGWLAAPQAYVSEKHEGNKIIAFERAGLLFIFNFHPSKSYTDYRVGTALPGKFKIVLDSDAAEYGGHQRLDHSTDFFSEAFEHNGRPYSLLVYIPSRVALILQNVDLPN [GBE1] | -0.0259 | 0.998 | -0.104 | -0.184 | 49.7 | 49.6
ACP2 | -1.34 | -0.755 | 0.018 | 0.434 | 56.1 | 57.2
EIF5A | 0.791 | 0.0469 | 0.0244 | 0.638 | 49.7 | 50.7
